Test results: patent publication US8129149B1, “Rapid and sensitive method to measure endonuclease activity” (The United States of America as represented by the …, priority 2008, dated 2012)

Target: T1, Recombinant APE1 (Homo sapiens, UniProt P27695)
T1 construct: purchased NEW ENGLAND BIOLABS
Assay: APE activity assay: APE cleavage of the substrate oligonucleotide, detected by Taq polymerase extension and real-time PCR
Type: biochemical
Settings: well A04; Substrate DNA and Template DNA with APE
Description: Recombinant APE1 at 10,000 units/ml in 50% glycerol was purchased from NEW ENGLAND BIOLABS. One unit is defined as the amount of enzyme required to hydrolyze 20 pmol of a 34 bp oligonucleotide duplex containing a single AP site in a 10 ul reaction volume over one hour at 37° C. The reaction buffer consisted of 50 mM potassium acetate, 20 mM Tris-acetate, 10 mM magnesium acetate (pH 7.9) and 1 mM dithiothreitol.
All oligonucleotides, primers and probes were purchased from GENE LINK, INC. (Hawthorne, N.Y.). The two oligonucleotides that are specific to this technique, are designated the substrate and the template. The oligonucleotide with sequence 5′-GGGGTTTTGGGTTTTTTTAATTTTAGGTTGTGGTTGTGGTTGTCGGXGACGTGTTGGTTTTT/3ddC/3′ (SEQ. ID No. 1) serving as the substrate for APE contains the tetrahydrofuran, an abasic analog (X), and a 3′ dideoxy-C to prevent extension by DNA polymerase. […]
Real-time PCR was performed using a BIO-RAD LABORATORIES (Hercules, Calif.) ICYCLER using BIO-RAD LABORATORIES IQTM SUPERMIX. Cycle times were an initial step at 95° C. for 10 minutes followed by an amplification program of 50 cycles of 3 seconds at 95° C., 5 seconds at 61° C., and 20 seconds at 72° C. with fluorescence acquisition in relative florescent units at the end of each extension. […]

T1 sequence (P27695 whole entry): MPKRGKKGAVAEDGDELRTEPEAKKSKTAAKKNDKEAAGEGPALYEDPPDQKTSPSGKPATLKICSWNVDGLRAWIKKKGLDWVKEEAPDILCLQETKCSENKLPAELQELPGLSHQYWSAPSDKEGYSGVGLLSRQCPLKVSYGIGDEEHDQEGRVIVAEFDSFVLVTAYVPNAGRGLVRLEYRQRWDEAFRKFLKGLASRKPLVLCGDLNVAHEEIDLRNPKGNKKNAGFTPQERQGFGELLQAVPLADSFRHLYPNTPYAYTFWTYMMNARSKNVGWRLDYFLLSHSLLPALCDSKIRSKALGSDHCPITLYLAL

B1: 5′-GGGGTTTTGGGTTTTTTTAATTTTAGGTTGTGGTTGTGGTTGTCGGXGACGTGTTGGTTTTT/3ddC/3′ (nucleic acid)
chain: GGGGTTTTGGGTTTTTTTAATTTTAGGTTGTGGTTGTGGTTGTCGGGACGTGTTGGTTTTT
modifications: tetrahydrofuran abasic site; 3' dideoxy-C; SITE (46)...(47) Tetrahydrofuran is used to modify site 46 and 47. Serves as substrate for APE. Substrate is a commercial product. The 3′ end is modified by 3ddc/3′ to prevent extension by DNA polymerase.Chemically Synthesized
notes: substrate for APE; contains the tetrahydrofuran, an abasic analog (X), and a 3′ dideoxy-C to prevent extension by DNA polymerase
CT of real-time PCR amplification: 26.3
